{
  "source": "FireProtDB (doi:10.1021/bi0362267)",
  "parents": {"B1": {"name": "Ribonuclease, P00648 (parent)", "chain": "MMKMEGIALKKRLSWISVCLLVLVSAAGMLFSTAAKTETSSHKAHTEAQVINTFDGVADYLQTYHKLPDNYITKSEAQALGWVASKGNLADVAPGKSIGGDIFSNREGKLPGKSGRTWREADINYTSGFRNSDRILYSSDWLIYKTTDHYQTFTKIR"}},
  "variants_of": "B1",
  "details": "Bacillus amyloliquefaciens, pH 6.3, Thermal, CD, Mes 50 mM, structure 1BNI, whole UniProt chain shown; for ddG of mutation (higher = less stable) / unfolding free energy: 25 °C",
  "data": [
    {"variant": "MMKMEGIALKKRLSWISVCLLVLVSAAGMLFSTAAKTETSSHKAHTEAQVINTFDGVADYLQTYHKLPDNYITKSEAQALGWVASKGNLADVAPGKSIGGDIFSNREGKLPGKSGRTWGEADINYTSGFRNSDRILYSSDWLIYKTTDHYQTFTKIR", "note": "[R119G]", "values": [
      {"measurement": "ddG of mutation (higher = less stable)", "value": 2.5, "unit": "kcal/mol"},
      {"measurement": "unfolding free energy", "value": 7, "unit": "kcal/mol"},
      {"measurement": "Tm", "value": 46.5, "unit": "°C"},
      {"measurement": "change of melting temperature, mutant - wild type (higher = more stable)", "value": -5.7, "unit": "°C"},
      {"measurement": "unfolding enthalpy (van 't Hoff)", "value": 123, "unit": "kcal/mol"}
    ]},
    {"variant": "MMKMEGIALKKRLSWISVCLLVLVSAAGMLFSTAAKTETSSHKAHTEAQVINTFDGVADYLQTYHKLPDNYITKSEAQALGWVASKGNLADVAPGKSIGGDIFSNREGKLPGKSGRTWREADINYTSGFRNSDRGLYSSDWLIYKTTDHYQTFTKIR", "note": "[I135G]", "values": [
      {"measurement": "ddG of mutation (higher = less stable)", "value": 7.4, "unit": "kcal/mol"},
      {"measurement": "unfolding free energy", "value": 2.1, "unit": "kcal/mol"},
      {"measurement": "Tm", "value": 31.4, "unit": "°C"},
      {"measurement": "change of melting temperature, mutant - wild type (higher = more stable)", "value": -20.8, "unit": "°C"},
      {"measurement": "unfolding enthalpy (van 't Hoff)", "value": 100, "unit": "kcal/mol"}
    ]},
    {"variant": "MMKMEGIALKKRLSWISVCLLVLVSAAGMLFSTAAKTETSSHKAHTEAQVINTFDGVADGLQTYHKLPDNYITKSEAQALGWVASKGNLADVAPGKSIGGDIFSNREGKLPGKSGRTWREADINYTSGFRNSDRILYSSDWLIYKTTDHYQTFTKIR", "note": "[Y60G]", "values": [
      {"measurement": "ddG of mutation (higher = less stable)", "value": 6.4, "unit": "kcal/mol"},
      {"measurement": "unfolding free energy", "value": 3.1, "unit": "kcal/mol"},
      {"measurement": "Tm", "value": 36.6, "unit": "°C"},
      {"measurement": "change of melting temperature, mutant - wild type (higher = more stable)", "value": -15.6, "unit": "°C"},
      {"measurement": "unfolding enthalpy (van 't Hoff)", "value": 92.7, "unit": "kcal/mol"}
    ]},
    {"variant": "MMKMEGIALKKRLSWISVCLLVLVSAAGMLFSTAAKTETSSHKAHTEAQVINTFDGVADYLQTYHKLPDNYITKSEAQALGWVASKGNLADVAPGKSIGGDGFSNREGKLPGKSGRTWREADINYTSGFRNSDRILYSSDWLIYKTTDHYQTFTKIR", "note": "[I102G]", "values": [
      {"measurement": "ddG of mutation (higher = less stable)", "value": 3.1, "unit": "kcal/mol"},
      {"measurement": "unfolding free energy", "value": 6.4, "unit": "kcal/mol"}
    ]},
    {"variant": "MMKMEGIALKKRLSWISVCLLVLVSAAGMLFSTAAKTETSSHKAHTEAQVINTFDGVADYLGTYHKLPDNYITKSEAQALGWVASKGNLADVAPGKSIGGDIFSNREGKLPGKSGRTWREADINYTSGFRNSDRILYSSDWLIYKTTDHYQTFTKIR", "note": "[Q62G]", "values": [
      {"measurement": "ddG of mutation (higher = less stable)", "value": 1.6, "unit": "kcal/mol"},
      {"measurement": "unfolding free energy", "value": 7.9, "unit": "kcal/mol"},
      {"measurement": "Tm", "value": 50.2, "unit": "°C"},
      {"measurement": "change of melting temperature, mutant - wild type (higher = more stable)", "value": -2, "unit": "°C"},
      {"measurement": "unfolding enthalpy (van 't Hoff)", "value": 123, "unit": "kcal/mol"}
    ]},
    {"variant": "MMKMEGIALKKRLSWISVCLLVLVSAAGMLFSTAAKTETSSHKAHTEAQVINTFDGVADYLATYHKLPDNYITKSEAQALGWVASKGNLADVAPGKSIGGDIFSNREGKLPGKSGRTWREADINYTSGFRNSDRILYSSDWLIYKTTDHYQTFTKIR", "note": "[Q62A]", "values": [
      {"measurement": "ddG of mutation (higher = less stable)", "value": 0.2, "unit": "kcal/mol"},
      {"measurement": "unfolding free energy", "value": 9.3, "unit": "kcal/mol"},
      {"measurement": "Tm", "value": 51.4, "unit": "°C"},
      {"measurement": "change of melting temperature, mutant - wild type (higher = more stable)", "value": -0.9, "unit": "°C"},
      {"measurement": "unfolding enthalpy (van 't Hoff)", "value": 137, "unit": "kcal/mol"}
    ]},
    {"variant": "MMKMEGIALKKRLSWISVCLLVLVSAAGMLFSTAAKTETSSHKAHTEAQVINTFDGVAGYLQTYHKLPDNYITKSEAQALGWVASKGNLADVAPGKSIGGDIFSNREGKLPGKSGRTWREADINYTSGFRNSDRILYSSDWLIYKTTDHYQTFTKIR", "note": "[D59G]", "values": [
      {"measurement": "ddG of mutation (higher = less stable)", "value": 1.2, "unit": "kcal/mol"},
      {"measurement": "unfolding free energy", "value": 8.3, "unit": "kcal/mol"},
      {"measurement": "Tm", "value": 50, "unit": "°C"},
      {"measurement": "change of melting temperature, mutant - wild type (higher = more stable)", "value": -2.3, "unit": "°C"},
      {"measurement": "unfolding enthalpy (van 't Hoff)", "value": 129, "unit": "kcal/mol"}
    ]},
    {"variant": "MMKMEGIALKKRLSWISVCLLVLVSAAGMLFSTAAKTETSSHKAHTEAQVINTFDGVAAYLQTYHKLPDNYITKSEAQALGWVASKGNLADVAPGKSIGGDIFSNREGKLPGKSGRTWREADINYTSGFRNSDRILYSSDWLIYKTTDHYQTFTKIR", "note": "[D59A]", "values": [
      {"measurement": "ddG of mutation (higher = less stable)", "value": -1.1, "unit": "kcal/mol"},
      {"measurement": "unfolding free energy", "value": 10.6, "unit": "kcal/mol"},
      {"measurement": "Tm", "value": 51.2, "unit": "°C"},
      {"measurement": "change of melting temperature, mutant - wild type (higher = more stable)", "value": -1, "unit": "°C"},
      {"measurement": "unfolding enthalpy (van 't Hoff)", "value": 153, "unit": "kcal/mol"}
    ]},
    {"variant": "MMKMEGIALKKRLSWISVCLLVLVSAAGMLFSTAAKTETSSHKAHTEAQVINTFDGVADYLQTYHKLPDNYITKSEAQALGWVASKGNLADVAPGKSIGGDIFSNREGKLPGKSGRTWREADINYTSGFRNSDRIGYSSDWLIYKTTDHYQTFTKIR", "note": "[L136G]", "values": [
      {"measurement": "ddG of mutation (higher = less stable)", "value": 7, "unit": "kcal/mol"},
      {"measurement": "unfolding free energy", "value": 2.5, "unit": "kcal/mol"},
      {"measurement": "Tm", "value": 43.5, "unit": "°C"},
      {"measurement": "change of melting temperature, mutant - wild type (higher = more stable)", "value": -8.7, "unit": "°C"},
      {"measurement": "unfolding enthalpy (van 't Hoff)", "value": 58.5, "unit": "kcal/mol"}
    ]}
  ]
}
